# Source: US20260124314A1, “ANTl-5T4 ANTIGEN BINDING DOMAINS, ANTIBODY-DRUG CONJUGATES AND METHODS OF USE THEREOF” (Salubris Biotherapeutics, Inc., priority 2023, published 2026)
# Substitutions are numbered along the chain they refer to.
# B1: humanized antibody No. 1 ((h)Ab1) (antibody, V domains shown)
# VH: QVQLVQSGAEVKKPGASVKVSCKASGYSFTDYYMHWVRQAPGQGLEWMGRVSPNNGATNTNQKFKDRVTMTRDTSISTAYMELRSLRSEDTAVYYCARSTMITSYYFDYWGQGTLVTVSS
# VL: DIVMTQSPSFLSVSVGDRVTITCKASQSVSTDVAWYQQKPGQAPKLLIYFASDRYTGVPDRFSGSGSGTDFTFTISSLQAEDVAVYYCQQDYSSPPTFGGGTKLEIK
# notes: The FcγR assay calls it 'without Fc mutations'; also called humanized Ab1; humanized monospecific antibody Ab1
# B2: mouse antibody No. 2 ((m)Ab2) (antibody, V domains shown)
# VH: EVKLLESGGGLVQPGGSLKLSCAASGFDFSRYWMTWVRQAPGKGLEWIGEINPDSRTINYTPSLKDKFIISRDNAKNTLYLHMSKVRSEDTALYYCARPDHDYNPYYFNYWGQGTTLTVSS
# VL: DIVLTQSPASLAVSLGQRATISCRPSQSVSTSSNSYIHWYQQKPGQPPKLLIKYASNLESGVPARFSGSGSGTDFTLNIHPVEEEDTATYYCQQSWEIPLTFGAGTKLELK
# notes: Mouse IgG; also called mouse Ab2; mouse monospecific antibody Ab2
# B3: humanized antibody No. 2 ((h)Ab2) (antibody, V domains shown)
# VH: EVQLLESGGGLVQPGGSLRLSCAASGFDFSRYWMTWVRQAPGKGLEWVSEINPDSRTINYTPSLKDRFTISRDNAKNTLYLQMNSLRAEDTAVYYCARPDHDYNPYYFNYWGQGTTVTVSS
# VL: B2 VL with N78T, H80S, E84A, A104G, L110I
# notes: also called humanized Ab2; humanized monospecific antibody Ab2
# B4: mouse antibody No. 1 ((m)Ab1) (antibody, V domains shown)
# VH: EVQLQQSGPDLVKPGASVKISCKASGYSFTDYYMHWVKQSHGKSLEWIGRVSPNNGATNTNQKFKDKAILTVDKSSSTAYMDLRSLTSEDSAVYYCARSTMITSYYFDYWGQGTTLTVSS
# VL: SIVMTQTPKFLLVSAGDRITITCKASQSVSTDVAWYQQKPGQSPKLLIYFASDRYTGVPDRFTGSGNGTDFTFTITTVQAEDLAIYFCQQDYSSPPTFGGGTKLEIK
# notes: Mouse IgG, captured by anti-mouse IgG antibodies; also called mouse Ab1; mouse monospecific antibody Ab1
# B5: Bs3-HL biparatopic anti-5T4 antibody (Bs3 orientation, scFv in the VH-VL orientation) (bispecific antibody, human IgG1, kappa)
# heavy: QVQLVQSGAEVKKPGASVKVSCKASGYSFTDYYMHWVRQAPGQGLEWMGRVSPNNGATNTNQKFKDRVTMTRDTSISTAYMELRSLRSEDTAVYYCARSTMITSYYFDYWGQGTLVTVSSASTKGPSVFPLAPSSKSTSGGTAALGCLVKDYFPEPVTVSWNSGALTSGVHTFPAVLQSSGLYSLSSVVTVPSSSLGTQTYICNVNHKPSNTKVDKRVEPKSCDKTHTCPPCPAPEFLGGPCVFLFPPKPKDTLMISRTPEVTCVVVDVSHEDPEVKFNWYVDGVEVHNAKTKPREEQYNSTYRVVSVLTVLHQDWLNGKEYKCKVSNKALPAPIEKTISKAKGQPREPQVYTLPPSREEMTKNQVSLTCLVKGFYPSDIAVEWESNGQPENNYKTTPPVLDSDGSFFLYSKLTVDKSRWQQGNVFSCSVMHEALHAHYTQKSLSLSPGKGGGGSGGGGSGGGGSEVQLLESGGGLVQPGGSLRLSCAASGFDFSRYWMTWVRQAPGKCLEWVSEINPDSRTINYTPSLKDRFTISRDNAKNTLYLQMNSLRAEDTAVYYCARPDHDYNPYYFNYWGQGTTVTVSSGGGGSGGGGSGGGGSGGGGSDIVLTQSPASLAVSLGQRATISCRPSQSVSTSSNSYIHWYQQKPGQPPKLLIKYASNLESGVPARFSGSGSGTDFTLTISPVEAEDTATYYCQQSWEIPLTFGCGTKLEIK
# light: DIVMTQSPSFLSVSVGDRVTITCKASQSVSTDVAWYQQKPGQAPKLLIYFASDRYTGVPDRFSGSGSGTDFTFTISSLQAEDVAVYYCQQDYSSPPTFGGGTKLEIKRTVAAPSVFIFPPSDEQLKSGTASVVCLLNNFYPREAKVQWKVDNALQSGNSQESVTEQDSKDSTYSLSSTLTLSKADYEKHKVYACEVTHQGLSSPVTKSFNRGEC
# notes: The heavy chain is Ab1 heavy chain (IgG1), linker, then Ab2 scFv (VH-linker-VL); Bs3-HL is described as the form without FCA, so its real Fc may have L, S and N at those positions; also called bispecific antibody in the Bs3-HL orientation; Bispecific 5T4-BS3 antibody
# B6: Bs3-HL biparatopic anti-5T4 antibody conjugated to MMAE (Example 4) (bispecific antibody, human IgG1, kappa)
# heavy: B5 heavy
# light: B5 light
# modifications: monomethyl auristatin E (MMAE) conjugated; attachment residues, chain and drug-to-antibody ratio not stated for this experiment
# notes: Antibody-drug conjugate of Bs3-HL; also called bispecific antibody in the Bs3-HL orientation conjugated to MMAE; bispecific antibody with conjugated MMAE
# Tests used:
# [1] = target: T1, recombinant human 5T4 protein (human, UniProt Q13641 32-355); assay: SPR (Biacore 8K): antibody captured on a protein A chip, 5T4 protein injected at 0.625-10 nM, 1:1 binding model
# T1 construct: The ELISA protein was bought (Sino biologics and Biorbyt); also called recombinant 5T4 protein; trophoblast glycoprotein (TPBG)
# T1 sequence: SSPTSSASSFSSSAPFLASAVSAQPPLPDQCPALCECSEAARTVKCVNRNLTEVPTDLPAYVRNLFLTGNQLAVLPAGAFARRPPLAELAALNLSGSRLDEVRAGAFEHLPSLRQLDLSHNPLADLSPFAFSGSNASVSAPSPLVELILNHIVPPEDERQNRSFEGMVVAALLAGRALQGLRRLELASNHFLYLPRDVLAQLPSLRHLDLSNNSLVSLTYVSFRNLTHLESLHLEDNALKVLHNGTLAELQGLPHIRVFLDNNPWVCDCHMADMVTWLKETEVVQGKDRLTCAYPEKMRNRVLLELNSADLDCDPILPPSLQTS
# Experimental: (§1) The binding affinity of anti-5T4 bispecific antibody-drug conjugate monospecific and bispecific antibodies to 5T4 was measured by Biacore kinetic experiments using a Protein A sensor chip on Biacore 8K (Cytiva) with HBS-EP+ as running buffer. […] After each binding cycle, the sensor chip was regenerated with glycine solution, pH 1.5. Signals from reference surface and an ensemble of buffer blank injections were subtracted from binding signals to correct for nonspecific binding and injection artifacts. The corrected experimental signals were globally fitted to a 1:1 binding model to extract kinetic constants, including association rate constant (ka), dissociation rate constant (kd), and equilibrium dissociation constant (KD), using the Biacore 8K Evaluation Software.
# [2] = target: T1, recombinant human 5T4 protein; assay: SPR (Biacore 8K), antibody captured on Protein A chip, 5T4 as analyte 0.625-10 nM, 1:1 model
# Experimental: as §1
# FcγRI (Abcam) = FcγRI (Abcam) (UniProt P12314); assay: SPR (Biacore 8K), antibody captured on Protein A chip, Fc receptor as analyte, 1:1 model
# FcγRIIIa (158V) = FcγRIIIa (158V) (UniProt P08637); assay: as above
# 5T4 = target: T2, 5T4 (Homo sapiens, UniProt Q13641); assay: Non-overlapping epitope binding assay (SPR); conditions: mouse antibody captured, 5T4 injected, then humanized antibody
# T2 sequence (Q13641 32-420): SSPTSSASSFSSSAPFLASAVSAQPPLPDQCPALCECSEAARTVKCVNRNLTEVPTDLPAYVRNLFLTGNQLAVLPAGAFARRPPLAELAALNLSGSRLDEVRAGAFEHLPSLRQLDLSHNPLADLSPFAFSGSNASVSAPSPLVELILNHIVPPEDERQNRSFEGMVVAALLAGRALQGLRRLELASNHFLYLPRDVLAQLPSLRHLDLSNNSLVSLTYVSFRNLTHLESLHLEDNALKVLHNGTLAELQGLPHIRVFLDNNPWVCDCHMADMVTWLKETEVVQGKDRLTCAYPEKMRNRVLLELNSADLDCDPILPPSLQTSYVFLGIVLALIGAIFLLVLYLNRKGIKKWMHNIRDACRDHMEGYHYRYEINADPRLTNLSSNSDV
# Experimental: To examine epitope binding of anti-5T4 bispecific antibody-drug conjugate parental monospecific antibodies, surface plasmon resonance (SPR) binding experiments were performed using Biacore™ 8K systems (Cytiva™). HBS-EP+ buffer (10 mM HEPES, 150 mM NaCl, 3 mM EDTA and 0.05% v/v Surfactant P20) was used as running buffer. Anti-mouse IgG antibodies from the mouse antibody capture kit (Cytiva) were coupled in active flow cells on a CM5 sensor chip using an amine coupling kit (Cytiva), whereas the reference cell was left blank. As the first step, mouse monospecific antibody Ab1 or Ab2 was injected over both cells on all experimental channels. Second, test article 5T4 or buffer was injected over both cells on the corresponding channel. Third, humanized monospecific antibody Ab1 or Ab2, or buffer, was injected over both cells on all experimental channels. After each binding cycle, the sensor chip was regenerated with 10 mM Glycine-HCl pH1.7. SPR signals (RU) were recorded in real-time and plotted against time to generate binding sensorgrams. Sensorgrams from multiple channels were overlaid using Biacore 8K Evaluation Software.
# To confirm the non-overlapping epitope binding of the select monospecific antibody Nos. 1 and 2, a surface plasmon resonance (SPR) technology-based binding assay was performed. […]
# [3] = target: T1, recombinant human 5T4 protein; assay: optimized SPR (Biacore 8K), antibody captured on Protein A chip, recombinant 5T4 as analyte 0.02 to 5 µg/mL, 1:1 model
# Experimental: (§2) SPR kinetic experiments were performed on Biacore 8K systems (GE healthcare) with HBS-EP+ as running buffer. […] Capture level for each antibody was maintained between 50-100 RU. The final analyte binding level at the highest concentration was maintained below 50 RU. […] After each binding cycle, the sensor chip was regenerated with glycine solution (pH 1.5). The resulting sensorgrams were fitted with a one-to-one binding model to extract kinetic constants using Biacore 8K Evaluation Software.
# [4] = target: T1, recombinant human 5T4 protein; assay: SPR (Biacore 8K, optimized assay): antibody captured on a protein A chip, recombinant 5T4 injected at 0.02-5 µg/mL, one-to-one binding model
# Experimental: as §2
# [5] = target: T1, recombinant human 5T4 protein; assay: SPR (Biacore 8K): antibody captured on a protein A chip, 5T4 protein injected at 0.625-10 nM, 1:1 binding model; FIG. 4C on D00005 prints the same value as 7.42e-11
# Experimental: as §1
# Chain of FcγRI (Abcam) (P12314 16-288 limits assumed): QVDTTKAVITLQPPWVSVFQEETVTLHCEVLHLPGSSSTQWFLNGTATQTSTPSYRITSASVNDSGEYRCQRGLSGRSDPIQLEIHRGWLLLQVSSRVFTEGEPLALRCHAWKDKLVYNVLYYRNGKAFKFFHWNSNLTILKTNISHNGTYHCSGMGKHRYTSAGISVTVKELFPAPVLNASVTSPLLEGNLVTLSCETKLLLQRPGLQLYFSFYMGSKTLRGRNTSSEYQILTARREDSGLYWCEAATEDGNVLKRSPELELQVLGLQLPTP
# Chain of FcγRIIIa (158V) (P08637 17-208 F176V): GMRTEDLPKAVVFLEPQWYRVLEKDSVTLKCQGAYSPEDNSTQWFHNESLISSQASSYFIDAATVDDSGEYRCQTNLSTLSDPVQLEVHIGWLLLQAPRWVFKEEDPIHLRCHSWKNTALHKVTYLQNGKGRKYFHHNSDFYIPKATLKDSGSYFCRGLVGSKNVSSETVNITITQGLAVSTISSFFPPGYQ
Molecule,koff [1] [s⁻¹],kon [1] [M⁻¹ s⁻¹],Kd [2] [nM],epitope binding on 5T4 (5T4),Kd [3] [nM],koff [4] [s⁻¹],kon [4] [M⁻¹ s⁻¹],Kd [4] [nM],also measured
B1,0.000248,1.25e+06,0.198,,,,,,Kd (FcγRI (Abcam)): 3.73 nM; Kd (FcγRIIIa (158V)): 50.5 nM
B2,,,,non-overlapping epitopes,1.34,0.000273,203000,,
B3,0.000283,884000,0.32,,,,,,
B4,,,,non-overlapping epitopes,1.43,0.000421,259000,,
B5,,,0.742,,,,,0.00363,Kd [5]: 0.0742 nM
B6,,,,,,5.99e-06,376000,0.0159,
